The data set concerns the molecule itself. The experiment in a line: SEC-SAXS; inline SEC-SAXS; 25 mM HEPES pH 8.0, 200 mM NaCl, 1 mM TCEP, with or without 1 mM ADP or AMPPNP; 25°C; 10 mg/ml protein, 100 μl injected; scattering fitted with dimer models (EOM, OLIGOMER). On the technique in general: In gel filtration, larger molecules generally elute earlier.

B1: mouse GRP94 (22-754) (natural protein, UniProt P08113 22-754, looked up)
chain: DDEVDVDGTVEEDLGKSREGSRTDDEVVQREEEAIQLDGLNASQIRELREKSEKFAFQAEVNRMMKLIINSLYKNKEIFLRELISNASDALDKIRLISLTDENALAGNEELTVKIKCDKEKNLLHVTDTGVGMTREELVKNLGTIAKSGTSEFLNKMTEAQEDGQSTSELIGQFGVGFYSAFLVADKVIVTSKHNNDTQHIWESDSNEFSVIADPRGNTLGRGTTITLVLKEEASDYLELDTIKNLVRKYSQFINFPIYVWSSKTETVEEPLEEDEAAKEEKEESDDEAAVEEEEEEKKPKTKKVEKTVWDWELMNDIKPIWQRPSKEVEEDEYKAFYKSFSKESDDPMAYIHFTAEGEVTFKSILFVPTSAPRGLFDEYGSKKSDYIKLYVRRVFITDDFHDMMPKYLNFVKGVVDSDDLPLNVSRETLQQHKLLKVIRKKLVRKTLDMIKKIADEKYNDTFWKEFGTNIKLGVIEDHSNRTRLAKLLRFQSSHHSTDITSLDQYVERMKEKQDKIYFMAGSSRKEAESSPFVERLLKKGYEVIYLTEPVDEYCIQALPEFDGKRFQNVAKEGVKFDESEKTKESREATEKEFEPLLNWMKDKALKDKIEKAVVSQRLTESPCALVASQYGWSGNMERIMKAQAYQTGKDISTNYYASQKKTFEINPRHPLIRDMLRRIKEDEDDKTVMDLAVVLFETATLRSGYLLPDTKAYGDRIERMLRLSLNIDPEAQ
notes: GRP94 (endoplasmin), mouse, residues 22-754, with the full pre-N domain and the charged linker region preserved; The N-terminal Strep-tag II is followed by a thrombin site; no thrombin cleavage is described; The C-terminal 6xHis tag was removed with TEV protease; also called mGRP94; mGrp94; source: E. coli BL21 (DE3), purified (Histrap HP, TEV cleavage, Hitrap Q HP, second Histrap HP …)
B1: the binding result is given as “binds”.

Values taken from PMC10638095, “Visualization of conformational transition of GRP94 in solution” (Life Science Alliance, 2023).
